For ten molecules, Fold increase over wild-type KD and Kd results are on record in patent US20220177549A1.

Positions count from the first letter of the chain named. Names and notes keep the numbering of the source.

For test [1], the target named is bovine FcRn complex (bovine) (UniProt F6R592). Description: SPR (Biacore 8K+), pH 5.9, 25 C; FcRn captured by anti-His, IgG as analyte; 1:1 kinetic model.
In test [2] the target is ovine FcRn complex (ovine) (UniProt Q6QAT4). Description: SPR (Biacore 8K+), pH 5.9, 25 C; FcRn captured by anti-His, IgG as analyte; steady state affinity.
Sequence of ovine FcRn complex (ovine) (main, as listed by the source, chain 1 of 2): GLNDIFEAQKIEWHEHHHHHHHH
Sequence of ovine FcRn complex (ovine) (Q6QAT4 other isoform, or with tags, fused parts or gaps, chain 2 of 2): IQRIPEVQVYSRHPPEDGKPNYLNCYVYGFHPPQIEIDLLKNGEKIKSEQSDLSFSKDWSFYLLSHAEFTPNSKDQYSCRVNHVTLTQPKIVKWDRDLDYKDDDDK
The target is the same in test [3]. Description: SPR (Biacore 8K+), pH 5.9, 25 C; FcRn captured by anti-His, IgG as analyte; 1:1 kinetic model.
The target in test [4] is porcine FcRn complex (porcine) (UniProt Q07717). Description: SPR (Biacore 8K+), pH 5.9, 25 C; FcRn captured by anti-His, IgG as analyte; steady state affinity.
Sequence of porcine FcRn complex (porcine) (Q07717 other isoform, or with tags, fused parts or gaps, chain 2 of 2): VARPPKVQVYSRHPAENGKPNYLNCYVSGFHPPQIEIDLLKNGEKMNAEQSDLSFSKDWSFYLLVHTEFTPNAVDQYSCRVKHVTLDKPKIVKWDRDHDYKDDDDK

Sequence of bovine FcRn complex (bovine) (chain, as listed by the source, chain 1 of 2): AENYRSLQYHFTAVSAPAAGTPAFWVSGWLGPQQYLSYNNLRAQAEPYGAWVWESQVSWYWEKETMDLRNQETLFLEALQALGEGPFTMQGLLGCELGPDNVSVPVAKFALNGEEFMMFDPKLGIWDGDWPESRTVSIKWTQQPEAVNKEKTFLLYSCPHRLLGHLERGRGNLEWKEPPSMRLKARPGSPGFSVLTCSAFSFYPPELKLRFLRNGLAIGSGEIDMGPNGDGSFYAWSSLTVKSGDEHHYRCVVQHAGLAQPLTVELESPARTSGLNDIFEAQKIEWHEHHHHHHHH
Sequence of bovine FcRn complex (bovine) (P01888 other isoform, or with tags, fused parts or gaps, chain 2 of 2): as the sequence (Q6QAT4 other isoform, or with tags, fused parts or gaps, chain 2 of 2) above, with I4P, E6K, V7I, N82K, T87E, K90R counted along it

B1: Bovine Q311V (antibody, part only; not given: variable domains and light chain, IgG1, not shown: another chain or arm of the molecule)
Fc: PPELPGGPSVFIFPPKPKDTLTISGTPEVTCVVVDVGHDDPEVKFSWFVDNVEVNTATTKPREEQFNSTYRVVSALRIQHVDWTGGKEFKCKVHNEGLPAPIVRTISRTKGPAREPQVYVLAPPQEELSKSTVSLTCMVTSFYPDYIAVEWQRNGQPESEDKYGTTPPQLDADSSYFLYSKLRVDRNSWQEGDTYTCVVMHEALHNHYTQKSTSKSA
As to B1, the Fold increase over wild-type KD in test [1] turned out to be 2.8 fold.

B2: Bovine N434Y (antibody, part only; not given: variable domains and light chain, IgG1, not shown: another chain or arm of the molecule)
Fc: B1 Fc with V81Q, N206Y
In test [1], B2 gave a Fold increase over wild-type KD of 42 fold and a Kd of 11.9 nM.

B3: Bovine Y436H (antibody, part only; not given: variable domains and light chain, IgG1, not shown: another chain or arm of the molecule)
Fc: B1 Fc with V81Q, Y208H
With B3, in test [1], the Fold increase over wild-type KD was found to be 2.3 fold and the Kd turned out to be 224 nM.

B4: Ovine wild-type (antibody, part only; not given: variable domains and light chain, IgG1, not shown: another chain or arm of the molecule)
Fc: PELPGGPSVFIFPPKPKDTLTISGTPEVTCVVVDVGQDDPEVQFSWFVDNVEVRTARTKPREEQFNSTFRVVSALPIQHQDWTGGKEFKCKVHNEALPAPIVRTISRTKGQAREPQVYVLAPPQEELSKSTLSVTCLVTGFYPDYIAVEWQKNGQPESEDKYGTTTSQLDADGSYFLYSRLRVDKNSWQEGDTYACVVMHEALHNHYTQKSISKPPGK
Turning to B4, the Fold increase over wild-type KD in test [2] turned out to be 1 fold.

B5: Ovine Q309V (antibody, part only; not given: variable domains and light chain, IgG1, not shown: another chain or arm of the molecule)
Fc: B4 Fc with Q78V
Turning to B5, in test [3], the Fold increase over wild-type KD came to 6.3 fold and the Kd came out at 79.3 nM.

B6: Ovine T252Y (antibody, part only; not given: variable domains and light chain, IgG1, not shown: another chain or arm of the molecule)
Fc: B4 Fc with T21Y
In test [3], B6 returned a Fold increase over wild-type KD of 11 fold and a Kd of 43.1 nM.

B7: Ovine Q311V (antibody, part only; not given: variable domains and light chain, IgG1, not shown: another chain or arm of the molecule)
Fc: B4 Fc with Q80V
In test [3], B7 displayed a Fold increase over wild-type KD of 5.4 fold and a Kd of 92.7 nM.

B8: Ovine M428Y (antibody, part only; not given: variable domains and light chain, IgG1, not shown: another chain or arm of the molecule)
Fc: B4 Fc with M199Y
Turning to B8, in test [3], the Fold increase over wild-type KD amounted to 3 fold and the Kd came out at 166 nM.

B9: Ovine N434Y (antibody, part only; not given: variable domains and light chain, IgG1, not shown: another chain or arm of the molecule)
Fc: B4 Fc with N205Y
In test [3], B9 came in with a Fold increase over wild-type KD of 81 fold and a Kd of 6.09 nM.

B10: Porcine wild-type (antibody, part only; not given: variable domains and light chain, IgG1a, not shown: another chain or arm of the molecule)
Fc: GCEVAGPSVFIFPPKPKDTLMISQTPEVTCVVVDVSKEHAEVQFSWYVDGVEVHTAETRPKEEQFNSTYRVVSVLPIQHQDWLKGKEFKCKVNNVDLPAPITRTISKAIGQSREPQVYTLPPPAEELSRSKVTVTCLVIGFYPPDIHVEWKSNGQPEPEGNYRTTPPQQDVDGTFFLYSKLAVDKARWDHGETFECAVMHEALHNHYTQKSISKTQGK
In test [4], B10 returned a Fold increase over wild-type KD of 1 fold.
